The results in this text go back to paper doi:10.1101/2024.10.21.619389 (bioRxiv, 2024).

The series concerns the molecule itself. The series can be described thus: negative-stain transmission electron microscopy.

B1: light-dependent protochlorophyllide oxidoreductase (LPOR) isoform AtPORB (enzyme, Arabidopsis thaliana)
chain: QTAATSSPTVTKSVDGKKTLRKGNVVVTGASSGLGLATAKALAETGKWNVIMACRDFLKAERAAKSVGMPKDSYTVMHLDLASLDSVRQFVDNFRRTETPLDVLVCNAAVYFPTAKEPTYSAEGFELSVATNHLGHFLLARLLLDDLKKSDYPSKRLIIVGSITGNTNTLAGNVPPKANLGDLRGLAGGLNGLNSSAMIDGGDFDGAKAYKDSKVCNMLTMQEFHRRFHEETGVTFASLYPGCIASTGLFREHIPLFRALFPPFQKYITKGYVSETESGKRLAQVVSDPSLTKSGVYWSWNNASASFENQLSEEASDVEKARKVWEISEKLVGLA
On to B1, for which the binding result is “binds”.
